The record followed here is patent publication US20200199231A1 (Genmab, published 2020).

The target of assay [1] is T1, CD20 KDD mutant (human, UniProt P11836 1-297).
T1 construct: whole, on cells; Transiently expressed in HEK293F cells; also called T159K/N163D/N166D
T1 sequence (looked up): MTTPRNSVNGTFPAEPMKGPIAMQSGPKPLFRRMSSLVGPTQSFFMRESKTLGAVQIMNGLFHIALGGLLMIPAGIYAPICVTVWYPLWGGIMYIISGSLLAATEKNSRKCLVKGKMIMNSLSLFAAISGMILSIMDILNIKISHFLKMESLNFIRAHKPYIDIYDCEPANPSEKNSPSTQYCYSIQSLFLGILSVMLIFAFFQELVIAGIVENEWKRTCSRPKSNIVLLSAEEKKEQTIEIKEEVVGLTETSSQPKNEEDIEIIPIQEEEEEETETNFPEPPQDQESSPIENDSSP
Nature of the assay: flow cytometry, HEK293F cells expressing CD20 KDD mutant. As for the experimental part: (§1) PCR was performed on a Tgradient Thermocycler 96 (Biometra) using a 35 cycle program of: +95° C. for 15 min, followed by 35 cycles of: +94° C. for 30 sec, anneal: 55° C. for 30 sec and extension: +72° C. for 2 min, followed by a final extension step at 72° C. for 10 min and subsequent storage at 4° C. The completed reactions were analyzed by agarose gel electrophoresis. See Table 11 for details of primer pairs used for colony PCR. DNA sequencing: Plasmid DNA samples were send to AGOWA (Berlin, Germany) for sequence analysis. Sequences were analyzed using the VectorNTI software package (Informax, Frederick, Md., USA).
(§2) Mutagenesis: The mutagenesis was performed, using the QuikChange® XL Site-Directed Mutagenesis kit (Cat 200517-5, Lot 1120630, Stratagene Europe) according to the manufacturer's instructions. Mutagenesis reactions were concentrated using ethanol precipitation and transformed into either oneshot DH5α-TIR competent E. coli cells or electroporated into ElectroTen-Blue® Electroporation-Competent Cells. Colonies were checked by colony PCR and restriction digestion prior to transfection. […] Anti-CD20 Antibody binding: HEK293F cells were taken up in staining buffer (PBS supplemented with 0.1% BSA and 0.02% NaN₃) and added to round bottom plates (1-3×10⁵/well in 100 μL). […] After washing twice in staining buffer, cells were incubated in 50 μL secondary antibody at 4° C. for 30 min. As a secondary antibody, R-Phycoerythrin (PE)-conjugated goat-anti-human IgG F(ab′)₂ was used, as described supra. Next, cells were washed once in staining buffer, re-suspended in 150 μL staining buffer and analyzed on a flow cytometer (FACSCanto-720, Becton Dickinson, San Diego, Calif., USA) and 10,000 events per sample were acquired at high flow rate. Binding curves were analyzed using non-linear regression (sigmoidal dose-response with variable slope) using GraphPad Prism V75.04 software (GraphPad Software, San Diego, Calif., USA).
For orientation: A flow cytometer gives signals particle by particle.

The target in assay [2] is T2, CD20-AxP (human, UniProt P11836 1-297).
T2 construct: whole, on cells; Transiently expressed in HEK293F cells; also called AxP mutant; CD20 mutant (CD20-AxP)
T2 sequence (looked up): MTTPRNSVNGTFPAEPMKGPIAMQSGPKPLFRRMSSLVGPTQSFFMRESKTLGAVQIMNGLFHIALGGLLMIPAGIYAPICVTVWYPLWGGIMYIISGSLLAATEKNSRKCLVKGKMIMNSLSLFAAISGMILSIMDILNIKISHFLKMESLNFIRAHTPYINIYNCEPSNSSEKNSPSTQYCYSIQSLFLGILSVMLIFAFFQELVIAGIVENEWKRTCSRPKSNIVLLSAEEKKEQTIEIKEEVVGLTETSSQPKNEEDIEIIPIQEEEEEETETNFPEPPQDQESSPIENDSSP
Nature of the assay: flow cytometry, HEK293F transfectants, MFI mutant/MFI wt at 10 µg/mL. As for the experimental part: (§3) As a secondary antibody, R-Phycoerythrin (PE)-conjugated goat-anti-human IgG F(ab′)₂ was used, as described supra. Next, cells were washed once in staining buffer, re-suspended in 150 μL staining buffer and analyzed on a flow cytometer (FACSCanto-720, Becton Dickinson, San Diego, Calif., USA) and 10,000 events per sample were acquired at high flow rate. Binding curves were analyzed using non-linear regression (sigmoidal dose-response with variable slope) using GraphPad Prism V75.04 software (GraphPad Software, San Diego, Calif., USA).
(§4) Numbers indicate the percentage of binding to the CD20 mutants, relative to binding to wild type CD20, at 10 μg/mL. The percentage of binding was calculated by the following formula: (MFI binding to CD20 mutant)/(MFI binding CD20 wt) × 100%

Assay [3] addresses T1, CD20 KDD mutant. The assay is described as above. The protocol:
as §3, §4

For assay [4], the target named is T3, human CD20 (human, UniProt P11836 1-297).
T3 construct: whole, on cells; On Daudi and other human B cell lines, on human B cells in blood, or transiently expressed in HEK293F cells (construct pEE12.4CD20HS-GA); also called wild type CD20; WT CD20
T3 sequence (looked up): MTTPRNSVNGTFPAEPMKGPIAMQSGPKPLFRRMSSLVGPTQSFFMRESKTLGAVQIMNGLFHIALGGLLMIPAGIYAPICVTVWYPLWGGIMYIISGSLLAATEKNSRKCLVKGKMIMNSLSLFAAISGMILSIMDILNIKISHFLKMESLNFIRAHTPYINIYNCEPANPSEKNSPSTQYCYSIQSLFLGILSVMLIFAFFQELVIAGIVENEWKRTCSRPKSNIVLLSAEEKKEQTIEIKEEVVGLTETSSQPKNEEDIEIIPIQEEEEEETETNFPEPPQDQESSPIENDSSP
Nature of the assay: flow cytometry on HEK293F cells transiently expressing wild type CD20; PE-conjugated goat anti-human IgG F(ab')2; MFI. As for the experimental part: as §1, §2

Assay [5] has as its target T2, CD20-AxP. Nature of the assay: flow cytometry on HEK293F cells transiently expressing CD20-AxP (A170S/P172S); PE-conjugated goat anti-human IgG F(ab')2; MFI. The protocol: as §1, §2

B1: bsIgG1-huCD3-H1L1-FEALxCD20-7D8-FEAR (bispecific antibody)
heavy 1: not shown
light: not shown
heavy 2: EVQLVESGGGLVQPDRSLRLSCAASGFTFHDYAMHWVRQAPGKGLEWVSTISWNSGTIGYADSVKGRFTISRDNAKNSLYLQMNSLRAEDTALYYCAKDIQYGNYYYGMDVWGQGTTVTVSSASTKGPSVFPLAPSSKSTSGGTAALGCLVKDYFPEPVTVSWNSGALTSGVHTFPAVLQSSGLYSLSSVVTVPSSSLGTQTYICNVNHKPSNTKVDKRVEPKSCDKTHTCPPCPAPEFEGGPSVFLFPPKPKDTLMISRTPEVTCVVVAVSHEDPEVKFNWYVDGVEVHNAKTKPREEQYNSTYRVVSVLTVLHQDWLNGKEYKCKVSNKALPAPIEKTISKAKGQPREPQVYTLPPSREEMTKNQVSLTCLVKGFYPSDIAVEWESNGQPENNYKTTPPVLDSDGSFFLYSRLTVDKSRWQQGNVFSCSVMHEALHNHYTQKSLSLSPGK
VL: EIVLTQSPATLSLSPGERATLSCRASQSVSSYLAWYQQKPGQAPRLLIYDASNRATGIPARFSGSGSGTDFTLTISSLEPEDFAVYYCQQRSNWPITFGQGTRLEIK
notes: Made by 2-MEA-induced Fab-arm exchange; also called CD3xCD20; CD3x7D8
Take B1: in assay [1], the binding result was “no binding (tested: 0.0015-10 µg/mL)”. In addition, the “% of wt CD20 binding” value is 103% in assay [2] and 4% in assay [3]. In addition, the “EC50 (read off the curve)” value in assay [4] was ~0.1 µg/mL; in assay [5], ~0.2 µg/mL.

B2: bsIgG1-huCD3-H1L1-FEALxCD20-11B8-FEAR (bispecific antibody)
heavy 1: not shown
light: not shown
heavy 2: EVQLVQSGGGLVHPGGSLRLSCTGSGFTFSYHAMHWVRQAPGKGLEWVSIIGTGGVTYYADSVKGRFTISRDNVKNSLYLQMNSLRAEDMAVYYCARDYYGAGSFYDGLYGMDVWGQGTTVTVSSASTKGPSVFPLAPSSKSTSGGTAALGCLVKDYFPEPVTVSWNSGALTSGVHTFPAVLQSSGLYSLSSVVTVPSSSLGTQTYICNVNHKPSNTKVDKRVEPKSCDKTHTCPPCPAPEFEGGPSVFLFPPKPKDTLMISRTPEVTCVVVAVSHEDPEVKFNWYVDGVEVHNAKTKPREEQYNSTYRVVSVLTVLHQDWLNGKEYKCKVSNKALPAPIEKTISKAKGQPREPQVYTLPPSREEMTKNQVSLTCLVKGFYPSDIAVEWESNGQPENNYKTTPPVLDSDGSFFLYSRLTVDKSRWQQGNVFSCSVMHEALHNHYTQKSLSLSPGK
VL: EIVLTQSPATLSLSPGERATLSCRASQSVSSYLAWYQQKPGQAPRLLIYDASNRATGIPARFSGSGSGTDFTLTISSLEPEDFAVYYCQQRSDWPLTFGGGTKVEIK
notes: also called CD3x11B8; huCD3x11B8
On to B2, for which the figures for the “% of wt CD20 binding” value in assay [2] and in assay [3] were 95% and 67%, respectively. The entries for the “EC50 (read off the curve)” value in assay [4] and in assay [5] were ~0.1 µg/mL and ~0.2 µg/mL, respectively.

B3: bsIgG1-huCD3-H1L1-FEALxCD20-2F2-FEAR (bispecific antibody)
heavy 1: not shown
light: not shown
heavy 2: EVQLVESGGGLVQPGRSLRLSCAASGFTFNDYAMHWVRQAPGKGLEWVSTISWNSGSIGYADSVKGRFTISRDNAKKSLYLQMNSLRAEDTALYYCAKDIQYGNYYYGMDVWGQGTTVTVSSASTKGPSVFPLAPSSKSTSGGTAALGCLVKDYFPEPVTVSWNSGALTSGVHTFPAVLQSSGLYSLSSVVTVPSSSLGTQTYICNVNHKPSNTKVDKRVEPKSCDKTHTCPPCPAPEFEGGPSVFLFPPKPKDTLMISRTPEVTCVVVAVSHEDPEVKFNWYVDGVEVHNAKTKPREEQYNSTYRVVSVLTVLHQDWLNGKEYKCKVSNKALPAPIEKTISKAKGQPREPQVYTLPPSREEMTKNQVSLTCLVKGFYPSDIAVEWESNGQPENNYKTTPPVLDSDGSFFLYSRLTVDKSRWQQGNVFSCSVMHEALHNHYTQKSLSLSPGK
VL: EIVLTQSPATLSLSPGERATLSCRASQSVSSYLAWYQQKPGQAPRLLIYDASNRATGIPARFSGSGSGTDFTLTISSLEPEDFAVYYCQQRSNWPITFGQGTRLEIK
notes: also called huCD3x2F2
On to B3, for which the binding result in assay [1] is “no binding (tested: 0.0015-10 µg/mL)”. Also, the “% of wt CD20 binding” value in assay [2] was 98%; in assay [3], 4%. Moreover, the “EC50 (read off the curve)” value was ~0.1 µg/mL in assay [4] and ~0.2 µg/mL in assay [5].

As a reminder, the EC50 (read off the curve) is the midpoint of the concentration-response curve. A high value points to a less potent agent.
